We go through five molecules from patent publication US20240294632A1 (XL PROTEIN, published 2024).

Assay [1] addresses T1, P/A #1 sequence.
T1 construct: in sentences on specificity it stands for P/A #1 polypeptides in general
T1 peptide: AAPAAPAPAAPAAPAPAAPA
The experiment in a line: SPOT peptide array / hybridoma screening.

For another assay, the target named is T2, IL1Ra (Kineret/Anakinra) (UniProt P18510 26-177).
T2 construct: Commercial drug product; also called non-PASylated protein version
In words: western blot, hybridoma supernatant 1:2000. On the technique in general: In western blotting, separated proteins are transferred to a membrane and probed.

The target in assay [2] is T3, hu4D5-PAS #1(200).
T3 construct: Detected with anti-human kappa light chain antibody in the capture ELISA
The experiment in a line: MAb capture ELISA, hybridoma supernatant on anti-mouse IgG Fc, antigen titrated.

Assay [3] has as its target T4, P/A #1(200)-IL1Ra.
T4 construct: PASylated fusion protein produced in E. coli; Biotinylated for the SPR measurements with Fabs
The experiment in a line: Western blot of the fusion protein after SDS-PAGE; anti-mouse IgG Fc-AP, BCIP/NBT [F].

The target in assay [4] is T5, anti-Galectin-PAS(200) Fab fragment.
T5 construct: also called PASylated humanized anti-Galectin Fab fragment; PAS-Fab
In words: SPR, MAb 1.1 covalently coupled to a CM5 chip, PASylated anti-Galectin Fab injected.

Assay [5] addresses T6, PAS #1(200)-IL1Ra.
T6 construct: PASylated fusion protein produced in E. coli; Biotinylated for the SPR measurements with Fabs
In words: SPR, MAb from hybridoma supernatant captured by anti-mouse antibody, antigen as analyte, bivalent analyte model. (In general: In SPR one partner is held on a chip, and binding of the other changes the refractive index at the surface.)

Assay [6] has as its target T1, P/A #1 sequence. In words: ELISA and SPR with Fabs. In general terms: In an ELISA, binding on a coated surface is turned into a signal by an enzyme label.
The target of assay [7] is T7, PAS #1(600)-Leptin.
T7 chain: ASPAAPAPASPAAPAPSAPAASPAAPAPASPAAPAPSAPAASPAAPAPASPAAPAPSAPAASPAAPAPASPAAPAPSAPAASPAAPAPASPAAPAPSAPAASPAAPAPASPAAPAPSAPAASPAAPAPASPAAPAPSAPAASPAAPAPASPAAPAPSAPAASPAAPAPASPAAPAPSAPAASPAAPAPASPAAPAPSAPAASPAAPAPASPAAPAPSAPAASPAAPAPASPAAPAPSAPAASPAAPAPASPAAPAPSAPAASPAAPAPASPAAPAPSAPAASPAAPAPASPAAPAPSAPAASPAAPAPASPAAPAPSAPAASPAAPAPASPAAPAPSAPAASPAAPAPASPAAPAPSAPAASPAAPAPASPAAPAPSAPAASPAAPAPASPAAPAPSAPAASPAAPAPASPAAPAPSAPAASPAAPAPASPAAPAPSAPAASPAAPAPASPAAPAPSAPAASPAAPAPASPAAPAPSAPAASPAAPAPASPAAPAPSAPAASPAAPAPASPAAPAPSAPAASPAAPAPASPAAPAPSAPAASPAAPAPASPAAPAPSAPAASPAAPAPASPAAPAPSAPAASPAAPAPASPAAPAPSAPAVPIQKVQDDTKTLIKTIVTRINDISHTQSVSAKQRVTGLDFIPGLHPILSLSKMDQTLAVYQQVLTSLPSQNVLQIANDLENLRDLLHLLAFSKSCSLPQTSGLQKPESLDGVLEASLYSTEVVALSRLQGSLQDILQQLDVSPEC
In words: ELISA, antigen coated, Fab titrated.

The target of another assay is P/A#1(600)-GMCSF. The experiment in a line: ELISA, Fab titrated on P/A#1(600)-GMCSF.
For assay [8], the target named is T6, PAS #1(200)-IL1Ra. The experiment in a line: SPR, biotinylated antigen on CAPture chip, Fab as analyte, 1:1 model.
The target in another assay is IL1Ra-PAS#1(800). The experiment in a line: ELISA, Fab titrated on IL1Ra-PAS#1(800) (x axis: Fab concentration).
Assay [9] concerns the target T7, PAS #1(600)-Leptin. In words: ELISA, Fab titrated on PAS#1(600)-Leptin (x axis: Fab concentration).
In another assay the target is T8, StrepII-eGFP-PAS #1(200).
T8 construct: also called StrepII-eGFP-PAS #1(200) fusion protein
The experiment in a line: affinity chromatography on Fab coupled to a 1 ml HiTrap NHS column, elution with 1 M L-prolinamide; A280/A488 traces and SDS-PAGE of the fractions.

The next assay has as its target T9, H1GA-PAS #1(200)-His6.
T9 construct: also called C-terminally PASylated Anticalin H1GA-PAS #1(200)-His6
T9 chain: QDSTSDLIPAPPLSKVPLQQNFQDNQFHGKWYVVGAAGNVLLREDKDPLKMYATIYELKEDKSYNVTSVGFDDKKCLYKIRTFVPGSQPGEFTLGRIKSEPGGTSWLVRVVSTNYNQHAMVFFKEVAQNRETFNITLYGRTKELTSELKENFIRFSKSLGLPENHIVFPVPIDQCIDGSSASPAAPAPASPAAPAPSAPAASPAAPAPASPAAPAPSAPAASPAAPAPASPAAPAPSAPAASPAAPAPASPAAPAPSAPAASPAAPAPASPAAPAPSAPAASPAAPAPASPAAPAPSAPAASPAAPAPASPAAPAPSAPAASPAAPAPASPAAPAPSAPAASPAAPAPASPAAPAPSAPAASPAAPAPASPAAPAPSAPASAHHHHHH
The experiment in a line: affinity chromatography of a periplasmic extract on Fab coupled to a 1 ml HiTrap column, elution with 1 M L-prolinamide; blank-corrected A280 trace and SDS-PAGE [B].

The target in assay [10] is T4, P/A #1(200)-IL1Ra. The experiment in a line: Western blot of the fusion protein after SDS-PAGE; anti-mouse IgG Fc-AP, BCIP/NBT [G].
Assay [11] has as its target T3, hu4D5-PAS #1(200). In words: MAb capture ELISA: MAb from hybridoma supernatant captured by anti-mouse IgG Fc, hu4D5-PAS#1(200) titrated (x axis: antigen concentration).
Assay [12] concerns the target T10, PASylated Thymosin alpha 1.
T10 construct: also called PASylated Tα1
T10 chain: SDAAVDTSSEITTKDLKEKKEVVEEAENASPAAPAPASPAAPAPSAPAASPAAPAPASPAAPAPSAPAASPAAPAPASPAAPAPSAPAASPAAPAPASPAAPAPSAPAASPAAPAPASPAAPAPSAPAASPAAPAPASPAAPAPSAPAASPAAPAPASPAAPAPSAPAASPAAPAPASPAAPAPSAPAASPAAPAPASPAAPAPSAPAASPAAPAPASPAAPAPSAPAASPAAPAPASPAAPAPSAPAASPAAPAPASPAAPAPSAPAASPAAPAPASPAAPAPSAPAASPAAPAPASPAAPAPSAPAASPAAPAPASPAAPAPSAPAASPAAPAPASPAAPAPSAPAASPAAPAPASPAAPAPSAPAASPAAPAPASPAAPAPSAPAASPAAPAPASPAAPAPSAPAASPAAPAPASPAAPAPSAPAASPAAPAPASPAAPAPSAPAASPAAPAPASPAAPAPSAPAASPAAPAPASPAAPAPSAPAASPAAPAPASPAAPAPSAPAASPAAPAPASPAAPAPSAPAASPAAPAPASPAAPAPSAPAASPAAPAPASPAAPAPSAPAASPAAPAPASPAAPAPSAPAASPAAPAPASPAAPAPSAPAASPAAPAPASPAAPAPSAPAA
The experiment in a line: sandwich ELISA in diluted rat plasma: MAb 2.1 coated as capture antibody, MAb 1.2-alkaline phosphatase as detection reagent; calibration curve.

Assay [13] concerns the target T11, APSA(200)-IL1Ra.
T11 construct: Fusion protein produced in E. coli; Labelled with DIG-NHS in the MAb capture ELISA
The experiment in a line: ELISA, antigen coated, Fab titrated.

The target of assay [14] is T11, APSA(200)-IL1Ra. The experiment in a line: ELISA, Fab titrated on coated APSA(200)-IL1Ra.
The next assay addresses T12, Pga-APSAAPSAAPSA (N-terminal pyroglutamyl residue (Pga), counted as P1 in the structure).
T12 construct: Peptide ligand co-crystallised with the Fab of MAb 3.1; also called Pga-(APSA)3 peptide; (APSA)3 peptide
T12 peptide: APSAAPSAAPSA
The experiment in a line: co-crystal structure of the recombinant Fab with the peptide.

For another assay, the target named is T13, APSA(200)-TrxA.
T13 construct: Biotinylated and immobilised on a biotin CAPture chip; also called thioredoxinA-APSA(200)
In words: SPR, biotinylated antigen on CAPture chip, Fab as analyte, 1:1 model.

Assay [15] concerns the target T11, APSA(200)-IL1Ra. In words: MAb capture ELISA, hybridoma supernatant on anti-mouse IgG Fc, DIG-labelled antigen titrated.
Assay [16] deals with T6, PAS #1(200)-IL1Ra. In words: Western blot of the fusion protein after SDS-PAGE; anti-mouse IgG Fc-AP, BCIP/NBT [D].
Assay [17] addresses T11, APSA(200)-IL1Ra. The experiment in a line: SPR, MAb from hybridoma supernatant captured by anti-mouse antibody, antigen as analyte, bivalent analyte model.

T2 sequence (P18510 26-177 limits assumed): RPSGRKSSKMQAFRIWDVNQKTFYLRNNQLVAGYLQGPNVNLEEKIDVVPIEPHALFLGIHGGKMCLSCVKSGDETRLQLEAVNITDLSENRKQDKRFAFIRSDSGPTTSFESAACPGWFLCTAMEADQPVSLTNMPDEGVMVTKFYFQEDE
T4 sequence (chain, as listed by the source limits assumed): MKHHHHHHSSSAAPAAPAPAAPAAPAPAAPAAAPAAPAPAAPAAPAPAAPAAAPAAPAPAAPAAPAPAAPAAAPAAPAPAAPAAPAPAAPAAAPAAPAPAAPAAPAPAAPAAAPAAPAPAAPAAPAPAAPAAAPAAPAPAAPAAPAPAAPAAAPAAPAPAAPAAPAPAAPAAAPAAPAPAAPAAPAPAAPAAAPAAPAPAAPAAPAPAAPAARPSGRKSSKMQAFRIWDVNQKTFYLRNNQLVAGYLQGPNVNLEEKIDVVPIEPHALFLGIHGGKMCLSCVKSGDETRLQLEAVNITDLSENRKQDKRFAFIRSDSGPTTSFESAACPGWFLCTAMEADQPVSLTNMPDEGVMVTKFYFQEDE
T5 sequence (chain, as listed by the source): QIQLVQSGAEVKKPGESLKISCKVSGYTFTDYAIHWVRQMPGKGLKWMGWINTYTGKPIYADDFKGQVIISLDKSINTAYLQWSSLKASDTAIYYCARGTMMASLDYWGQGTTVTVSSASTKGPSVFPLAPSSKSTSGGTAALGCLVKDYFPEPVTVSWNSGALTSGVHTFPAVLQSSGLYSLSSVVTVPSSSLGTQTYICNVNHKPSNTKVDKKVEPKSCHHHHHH

B1: Anti-PA(S) MAb 1.1 (antibody, V domains shown)
VH: QVQLKESGPGLVAPSQSLSITCTVSGFSLTGYGVNWVRQPPGKGLEWLGMIWGDGITDYNSALKSRLSISKDNSKSQVFLKMNSLQTDDTARYYCARDYYGRRYYAMDYWGQGTSVTVSS
VL: DIVLTQSPASLAVSLGQRATISCRASKSVSSSGYNYMFWYQQKPGQPPKLLIYLASNLESGVPDRFWGSGSGTDFTLNIHPVEEEDAATYYCQHSRELPLTFGAGTKLELKR
notes: Mouse monoclonal IgG from hybridoma (culture supernatant); also called anti-PAS 1.1 MAb; DSM ACC3365
Regarding B1, the binding result is “no binding” with P/A #1 sequence [1], “no binding” with IL1Ra (Kineret/Anakinra), “no binding (tested: hybridoma supernatant diluted 1:2000)” with P/A #1(200)-IL1Ra [3] and “binds” in [4]. Moreover, the Kd is 0.037 nM with hu4D5-PAS #1(200) [2] and 1 nM with PAS #1(200)-IL1Ra [5].

B2: Fab fragment of Anti-PA(S) MAb 1.2 (Fab, V domains shown)
VH: QVQLVESGGGLVQPGGSLKLSCAASGFTFSSYGMSWVRQTPDKRLELVATINSNGGSTYYLDSVKGRFTISRDKAKNTLYLQMSSLKSEDTAMYYCVRGGSIYDGYDYAMDYWGQGTSVTVSS
VL: DIVLTQSPASLAVSLGQRATISCRASQSVSTSSYSYMHWFQQKPGQPPKLLIKYASNLESGVPARFSGSGSGTDFTLNIHPVEEEDTATYYCQHSWEIPLTFGAGTKLELKR
notes: also called Anti-PA(S) MAb 1.2 Fab; anti-PAS Fab 1.2
Consider B2, for which the binding result with P/A #1 sequence [6] is “no binding”; with P/A#1(600)-GMCSF, “no binding (tested: 4000 nM)”; with StrepII-eGFP-PAS #1(200), “binds”; with H1GA-PAS #1(200)-His6, “binds”. The figures for the Kd with PAS #1(600)-Leptin [7] and with PAS #1(200)-IL1Ra [8] were 123 nM and 3700 nM, respectively. For the same molecule, the EC50 (read off the curve) (in general, the concentration giving half of the maximal effect) with IL1Ra-PAS#1(800) is approximately 200 nM; with PAS #1(600)-Leptin [9] it was approximately 100 nM.

B3: Anti-PA(S) MAb 1.2 (antibody, V domains shown)
VH: B2 VH
VL: B2 VL
notes: Mouse monoclonal IgG from hybridoma (culture supernatant); alkaline phosphatase conjugate in the thymosin sandwich ELISA
As to B3, the binding result with P/A #1 sequence [1] was “no binding”; with IL1Ra (Kineret/Anakinra), “no binding”; in the assay with P/A #1(200)-IL1Ra [10], “no binding (tested: hybridoma supernatant diluted 1:2000)”; in assay [12] it was “binds”. Besides, the values for the Kd with hu4D5-PAS #1(200) [2] and with PAS #1(200)-IL1Ra [5] were 0.162 nM and 44 nM, respectively. The “EC50 (read off the curve)” value with hu4D5-PAS #1(200) [11] is approximately 0.2 nM.

B4: Fab fragment of Anti-PA(S) MAb 3.1 (Fab, V domains shown)
VH: QVQLQQSGAELVRPGASVKLSCKALGYIFTDYEMHWVKQTPVHGLEWIGVIHPGSGNTVYNQKFQGKATLTADKSSSTAYMEVSSLTSEDSAVYYCNLWGRWGQGTTLTVSS
VL: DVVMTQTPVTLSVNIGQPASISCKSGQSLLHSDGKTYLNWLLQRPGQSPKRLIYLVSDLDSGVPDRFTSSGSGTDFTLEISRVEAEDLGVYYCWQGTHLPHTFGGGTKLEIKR
notes: also called Anti-PA(S) MAb 3.1 Fab; anti-APSA antibody fragment
For B4, the Kd was found to be 1.9 nM with APSA(200)-IL1Ra [13] and 2.5 nM in the assay with APSA(200)-TrxA. The “EC50 (read off the curve)” value with APSA(200)-IL1Ra [14] was approximately 2 nM. In addition, the binding result with Pga-APSAAPSAAPSA was “binds”.

B5: Anti-PA(S) MAb 3.1 (antibody, V domains shown)
VH: B4 VH
VL: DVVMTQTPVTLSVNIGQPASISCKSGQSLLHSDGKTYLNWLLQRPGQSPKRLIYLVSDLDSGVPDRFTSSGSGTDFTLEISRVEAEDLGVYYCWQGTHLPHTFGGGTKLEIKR
notes: Mouse monoclonal IgG from hybridoma (culture supernatant); also called DSM ACC3367
Regarding B5, the figures for the binding result in the assay with IL1Ra (Kineret/Anakinra) and with PAS #1(200)-IL1Ra [16] were “no binding” and “no binding (tested: hybridoma supernatant diluted 1:2000)”, respectively. Further, the Kd was found to be 0.118 nM in the assay with APSA(200)-IL1Ra [15] and 0.019 nM with APSA(200)-IL1Ra [17].
